For one protein, Km, kcat and kcat/Km results are on record in paper PMC10025160, “Uncovering Zn^2+ as a cofactor of FAD-dependent Pseudomonas aeruginosa PAO1 D-2-hydroxyglutarate dehydrogenase” (The Journal of Biological Chemistry, 2023).

Substrate in this data set: O=C(O)C[C@@H](O)C(=O)O
As to the kind of experiment: initial rates, oxygen consumption (Oxy-32 electrode). The data set is classed as biochemical, Pseudomonas aeruginosa. Particulars: E-Zn^2+ form (purified with 1 mM ZnCl2, Zn:protein about 2:1), 1 mM PMS (fixed), 25 mM NaPO4, pH 7.4, 25 °C, apparent. From the text: initial rates, oxygen consumption (Oxy-32 electrode) on PaD2HGDH

B1: PaD2HGDH (Pseudomonas aeruginosa PAO1) (protein)
chain: MTREALIESLKPLVEPGKLLDDAASLDAYGKDWTKHFAPAPLAIVFPKSVEQVQAIVRWANQHKVGLVPSGGRTGLSAAAVAANGEVVVAFDYMNRILDFNAFDRTVVCQPGVVTKQLQTFAEENGLYYPVDFASSGSSQIGGNIGTNAGGIKVIRYGMTRNWVAGMKVVTGKGDLLELNKDLIKNATGYDMRQLFIGAEGTLGFVVEATMRLERTPKNLTAMVLGTPDFDSIMPVLHAFQSKLDLTAFEFFSDKALAKVLARGDVPRAFETDCPFYALLEFEATTEEVANEALATFEHCVEQGWVLDGVMSQSEQQLQNLWKLREYISETISHWTPYKNDISVTVSRVPAFLKDIDAIVEANYPDFEVVWFGHIGDGNLHLNILKPENLGKDEFFAKCATVNKWVFETVEKYNGSISAEHGVGMTKRDYLTYTRSETEIAYMKALKAVFDPNGIMNPGKIFAE
notes: wild type, His-tagged, pET20b(+), expressed in E. coli Rosetta(DE3)pLysS, Ni-NTA purified
Take B1: the Km came out at 5.1 ± 0.4 mM, the kcat was 38 ± 1 s⁻¹ and the kcat/Km was 7000 ± 500 M⁻¹ s⁻¹.

One may read the Km as the substrate concentration at which the rate is half of its maximum. One may read the kcat as the number of substrate molecules converted per active site and unit of time at saturation. Broadly, the kcat/Km is the turnover number divided by the Michaelis constant.
